Data set [1] deals with the molecule itself. The data set can be described thus: gel filtration of purified protein, fractions immunoblotted with anti-FOXP3 221D (self-association). The text has this:
FIG. 2A is an image of an immunoblot and a corresponding graph of the relative amounts of FOXP3a detected by the immunoblot. To generate the immunoblot, purified His-tagged FOXP3a was size fractionated by gel filtration, and the fractions were subject to immunoblotting with anti-FOXP3 antibody. ImageJ software (http://rsb.info.nih.gov/ij/) was used for relative quantification of the bands.
Full length FOXP3a (the large isoform) with a 6× His tag was expressed in Sf9 insect cells and purified by Ni-NTA column. The purified His-tagged full length FOXP3a was size fractionated, followed by SDS-PAGE and immunoblotting of the individual fractions with anti-FOXP3 mAb 221D. Purified full length FOXP3a eluted from the gel filtration column as a dominant mixture of monomers, dimers, tetramers, and a detectable amount of oligomeric species (FIG. 2A).
For orientation: SEC sorts molecules by how far they enter the pores of the column.

Data set [2] deals with the molecule itself. The data set can be described thus: co-immunoprecipitation from transfected HEK293T cells. An excerpt:
Full-length FOXP3 E251 and K250 deletion mutants were created by site-directed mutagenesis and subcloned into mammalian expression vectors containing either myc or HA epitope tags at the N-terminus. HEK293T cells were transfected with the myc-tagged wild type FOXP3, myc-tagged FOXP3-delE251, HA-tagged wild type FOXP3, or HA-tagged FOXP3-delE251 vectors as indicated (FIG. 2C). The HA-tagged wild type FOXP3 species was able to homo-associate with the myc-tagged wild type FOXP3, but not with the myc-tagged delE251 mutant, and vice versa (FIG. 2C). […] Thus the leucine zipper domain is essential for FOXP3 homo-association.

This is an account of results in patent US20110124560A1 (University of Pennsylvania, published 2011).

B1: His-tagged full length FOXP3a (other, human, UniProt Q9BZS1 1-431, looked up)
chain: MPNPRPGKPSAPSLALGPSPGASPSWRAAPKASDLLGARGPGGTFQGRDLRGGAHASSSSLNPMPPSQLQLPTLPLVMVAPSGARLGPLPHLQALLQDRPHFMHQLSTVDAHARTPVLQVHPLESPAMISLTPPTTATGVFSLKARPGLPPGINVASLEWVSREPALLCTFPNPSAPRKDSTLSAVPQSSYPLLANGVCKWPGCEKVFEEPEDFLKHCQADHLLDEKGRAQCLLQREMVQSLEQQLVLEKEKLSAMQAHLAGKMALTKASSVASSDKGSCCIVAAGSQGPVVPAWSGPREAPDSLFAVRRHLWGSHGNSTFPEFLHNMDYFKFHNMRPPFTYATLIRWAILEAPEKQRTLNEIYHWFTRMFAFFRNHPATWKNAIRHNLSLHKCFVRVESEKGAVWTVDELEFRKKRSQRPSRCSNPTPGP
notes: Expressed in Sf9 insect cells, purified by Ni-NTA; also called Full length FOXP3a (the large isoform) with a 6x His tag; purified His-tagged FOXP3a; not shown: 6x His tag
With B1, the binding result in data set [1] is “binds”.

B2: FOXP3 delK250 mutant (other, human, UniProt Q9BZS1 1-431, looked up, not shown: small tags and cut ends)
chain: MPNPRPGKPSAPSLALGPSPGASPSWRAAPKASDLLGARGPGGTFQGRDLRGGAHASSSSLNPMPPSQLQLPTLPLVMVAPSGARLGPLPHLQALLQDRPHFMHQLSTVDAHARTPVLQVHPLESPAMISLTPPTTATGVFSLKARPGLPPGINVASLEWVSREPALLCTFPNPSAPRKDSTLSAVPQSSYPLLANGVCKWPGCEKVFEEPEDFLKHCQADHLLDEKGRAQCLLQREMVQSLEQQLVLEEKLSAMQAHLAGKMALTKASSVASSDKGSCCIVAAGSQGPVVPAWSGPREAPDSLFAVRRHLWGSHGNSTFPEFLHNMDYFKFHNMRPPFTYATLIRWAILEAPEKQRTLNEIYHWFTRMFAFFRNHPATWKNAIRHNLSLHKCFVRVESEKGAVWTVDELEFRKKRSQRPSRCSNPTPGP
notes: Deletion, not a substitution: K250 is removed; also called myc-delK250 FOXP3a; FOXP3 K250 deletion mutant
For the protein B2, the binding result in data set [2] is “no binding”.
